Measured values taken from publication PMC12148588 (eBioMedicine, 2025).

Molecular target: T1, SARS-CoV-2 RBD of the VOC Delta (Acro Biosystems SPD-C82Ed-25) (SARS-CoV-2, VOC Delta (B.1.617.2), strain)
T1 construct: source: bought: Acro Biosystems
Assay: SPR; Biacore 8K+, […]; 10 mM HEPES pH 7.4, 150 mM NaCl, 3 mM EDTA, 0.05% Tween 20; […]
Conditions: both partners purified

B1: MB025_A09Lgl (antibody, V domains shown)
VH: EVQLVESGGGLVQPGGSLRLSCAASGFTVSSNYMSWVRQAPGKGLEWVSVIYSGGSTYYADSVKGRFTISRHNSKNTLYLQMNSLRAEDTAVYYCARGVDYRTNRTEGGAFDIWGQGTMVTVSS
VL: QSALTQPASVSGSPGQSITISCTGTSSDVGSYNLVSWYQQHPGKAPKLMIYEGSKRPSGVSNRFSGSKSGNTASLTISGLQAEDEADYYCCSYAGSSTWMFGGGTKLTVL
B1 showed a Kd of 731 nM.
